Experimental data: publication PMC12008302

B1: α-L-iduronidase (hIDUA): M6P-IDUA (Endo-D, then Endo-M N175Q transglycosylation) (protein)
parent chain: MRPLRPRAALLALLASLLAAPPVAPAEAPHLVHVDAARALWPLRRFWRSTGFCPPLPHSQADQYVLSWDQQLNLAYVGAVPHRGIKQVRTHWLLELVTTRGSTGRGLSYNFTHLDGYLDLLRENQLLPGFELMGSASGHFTDFEDKQQVFEWKDLVSSLARRYIGRYGLAHVSKWNFETWNEPDHHDFDNVSMTMQGFLNYYDACSEGLRAASPALRLGGPGDSFHTPPRSPLSWGLLRHCHDGTNFFTGEAGVRLDYISLHRKGARSSISILEQEKVVAQQIRQLFPKFADTPIYNDEADPLVGWSLPQPWRADVTYAAMVVKVIAQHQNLLLANTTSAFPYALLSNDNAFLSYHPHPFAQRTLTARFQVNNTRPPHVQLLRKPVLTAMGLLALLDEEQLWAEVSQAGTVLDSNHTVGVLASAHRPQGPADAWRAAVLIYASDDTRAHPNRSVAVTLRLRGVPPGPGLVYVTRYLDNGLCSPDGEWRRLGRPVFPTAEQFRRMRAAEDPVAAAPRPLPAGGRLTLRPALRLPSLLLVHVCARPEKPPGQVTRLRALPLTQGQLVLVWSDEHVGSKCLWTYEIQFSQDGKAYTPVSRKPSTFNLFVFSPDTGAVSGSYRVRALDYWARPGPFSDPVPYLEVPVPRGPPSPGNP
B2: α-L-iduronidase (hIDUA): SG-IDUA (Endo-CC N180H transglycosylation) (protein)
parent chain: MRPLRPRAALLALLASLLAAPPVAPAEAPHLVHVDAARALWPLRRFWRSTGFCPPLPHSQADQYVLSWDQQLNLAYVGAVPHRGIKQVRTHWLLELVTTRGSTGRGLSYNFTHLDGYLDLLRENQLLPGFELMGSASGHFTDFEDKQQVFEWKDLVSSLARRYIGRYGLAHVSKWNFETWNEPDHHDFDNVSMTMQGFLNYYDACSEGLRAASPALRLGGPGDSFHTPPRSPLSWGLLRHCHDGTNFFTGEAGVRLDYISLHRKGARSSISILEQEKVVAQQIRQLFPKFADTPIYNDEADPLVGWSLPQPWRADVTYAAMVVKVIAQHQNLLLANTTSAFPYALLSNDNAFLSYHPHPFAQRTLTARFQVNNTRPPHVQLLRKPVLTAMGLLALLDEEQLWAEVSQAGTVLDSNHTVGVLASAHRPQGPADAWRAAVLIYASDDTRAHPNRSVAVTLRLRGVPPGPGLVYVTRYLDNGLCSPDGEWRRLGRPVFPTAEQFRRMRAAEDPVAAAPRPLPAGGRLTLRPALRLPSLLLVHVCARPEKPPGQVTRLRALPLTQGQLVLVWSDEHVGSKCLWTYEIQFSQDGKAYTPVSRKPSTFNLFVFSPDTGAVSGSYRVRALDYWARPGPFSDPVPYLEVPVPRGPPSPGNP
B3: α-L-iduronidase (hIDUA): M6P-IDUA (protein)
parent chain: MRPLRPRAALLALLASLLAAPPVAPAEAPHLVHVDAARALWPLRRFWRSTGFCPPLPHSQADQYVLSWDQQLNLAYVGAVPHRGIKQVRTHWLLELVTTRGSTGRGLSYNFTHLDGYLDLLRENQLLPGFELMGSASGHFTDFEDKQQVFEWKDLVSSLARRYIGRYGLAHVSKWNFETWNEPDHHDFDNVSMTMQGFLNYYDACSEGLRAASPALRLGGPGDSFHTPPRSPLSWGLLRHCHDGTNFFTGEAGVRLDYISLHRKGARSSISILEQEKVVAQQIRQLFPKFADTPIYNDEADPLVGWSLPQPWRADVTYAAMVVKVIAQHQNLLLANTTSAFPYALLSNDNAFLSYHPHPFAQRTLTARFQVNNTRPPHVQLLRKPVLTAMGLLALLDEEQLWAEVSQAGTVLDSNHTVGVLASAHRPQGPADAWRAAVLIYASDDTRAHPNRSVAVTLRLRGVPPGPGLVYVTRYLDNGLCSPDGEWRRLGRPVFPTAEQFRRMRAAEDPVAAAPRPLPAGGRLTLRPALRLPSLLLVHVCARPEKPPGQVTRLRALPLTQGQLVLVWSDEHVGSKCLWTYEIQFSQDGKAYTPVSRKPSTFNLFVFSPDTGAVSGSYRVRALDYWARPGPFSDPVPYLEVPVPRGPPSPGNP
B4: α-L-iduronidase (hIDUA): SG-IDUA (protein)
parent chain: MRPLRPRAALLALLASLLAAPPVAPAEAPHLVHVDAARALWPLRRFWRSTGFCPPLPHSQADQYVLSWDQQLNLAYVGAVPHRGIKQVRTHWLLELVTTRGSTGRGLSYNFTHLDGYLDLLRENQLLPGFELMGSASGHFTDFEDKQQVFEWKDLVSSLARRYIGRYGLAHVSKWNFETWNEPDHHDFDNVSMTMQGFLNYYDACSEGLRAASPALRLGGPGDSFHTPPRSPLSWGLLRHCHDGTNFFTGEAGVRLDYISLHRKGARSSISILEQEKVVAQQIRQLFPKFADTPIYNDEADPLVGWSLPQPWRADVTYAAMVVKVIAQHQNLLLANTTSAFPYALLSNDNAFLSYHPHPFAQRTLTARFQVNNTRPPHVQLLRKPVLTAMGLLALLDEEQLWAEVSQAGTVLDSNHTVGVLASAHRPQGPADAWRAAVLIYASDDTRAHPNRSVAVTLRLRGVPPGPGLVYVTRYLDNGLCSPDGEWRRLGRPVFPTAEQFRRMRAAEDPVAAAPRPLPAGGRLTLRPALRLPSLLLVHVCARPEKPPGQVTRLRALPLTQGQLVLVWSDEHVGSKCLWTYEIQFSQDGKAYTPVSRKPSTFNLFVFSPDTGAVSGSYRVRALDYWARPGPFSDPVPYLEVPVPRGPPSPGNP

Key:
[1] = intracellular IDUA activity 24 h after enzyme addition; conditions: glycan changed form; control: HM-IDUA
[2] = AcidiFluor ORANGE live-cell imaging of lysosomal delivery; conditions: glycan changed form; control: AFO-labeled HM-IDUA

Row | Protein | other: cellular uptake [1] | localisation_or_trafficking [2]
1 | B1 | increases | –
2 | B2 | increases | –
3 | B3 | – | increases
4 | B4 | – | increases
